From paper PMC8548206, “Single-domain antibody screening by isPLA-seq” (Life Science Alliance, 2021) come the findings set out here.

Common to all, as to details: partners not purified
Test [1] addresses T1, HA-tagged SQSTM1 C-terminal region (221–440 aa) (Homo sapiens (Human)., UniProt Q13501).
T1 construct: also called C-terminal SQSTM1; source: transfected, in cells (isPLA, co-IP)
Nature of the test: proximity ligation; single sdAb DNA transfected along with HA-tagged SQSTM1 or its truncations; isPLA with anti-HA and anti-Flag antibodies 48 h after transfection.

Test [2] addresses T2, HA-tagged SQSTM1 N-terminal region (1–220 aa) (Homo sapiens (Human)., UniProt Q13501).
T2 construct: SQSTM1, residues 1-220; also called N-terminal region of SQSTM1 (1–220 aa); source: transfected, in cells (isPLA)
The description is as above.

Test [3] deals with T3, HA-tagged SQSTM1 (Homo sapiens (Human)., UniProt Q13501).
T3 construct: autophagy receptor SQSTM1, full length; the printed limits 1-440 fit the human protein; also called HA-tagged bait; full length; source: HEK293T, transfected, in fixed cells (screen)
The experiment in a line: proximity ligation; pooled screen (isPLA-seq): Flag-tagged sdAb library co-transfected with HA-tagged SQSTM1 into HEK293T cells, fixed after 48 h, isPLA with anti-HA and anti-Flag antibodies, positive cells sorted by FACS, three rounds, CDR3 sequenced. Background: Flow cytometry measures light scatter and fluorescence of single cells or particles in a stream.

B1: Flag-tagged anti-SQSTM1 sdAb clone #1 (VHH)
VHH: QVQLVESGGGSVQAGGSLRLSCTASGGSEYSYSTFSLGWFRQAPGQEREAVAAIASMGGLTYYADSVKGRFTISRDNAKNTVTLQMNNLKPEDTAIYYCAAEGLVYWTTKKSFGGCLLHDWSWGQGTQVTVSS
notes: 21-aa CDR3 in place of the CDR3 of cAbBCII10; also called anti-SQSTM1 clone #1; sdAb #1; source: HEK293T, transfected (sdAb library in pcDNA3.1), in fixed cells; not shown: 3x Flag, C-terminal, kept
Take B1: the binding result in test [1] is “binds”; in test [2], “no binding”; in test [3], “binds”.
